{"source": "patent US10428140B2", "about": "“Anti-EphA4 antibody” (EISAI R&D MANAGEMENT CO., LTD., priority 2015, dated 2019)", "key": {"rat hippocampal neurons": {"tested_on": "rat hippocampal neurons", "experiment": "Ligand-induced growth cone collapse in hippocampal neurons", "type": "cell-based", "conditions": "antibody A 0.1, 0.3, 1 μM; KYL peptide 10, 30, 100 μM", "experimental": "Rat hippocampal neurons were prepared as described in Example 10 above. The cells were inoculated to a 96-well plate (Greiner Bio-One) coated with poly-L-lysine containing culture solution.\nThe growth cone collapse assay using the hippocampal neurons was conducted according to the following steps. The rat hippocampal neurons of culture day 2 inoculated to the 96-well dish (Greiner Bio-One) were treated with PBS (Wako Pure Chemical Industries), antibody A (0.1, 0.3, and 1 μM), or an EphA4 inhibitor KYL peptide (KYLPYWPVLSSL, 10, 30, and 100 μM, its synthesis was outsourced to Toray Research Center) for 15 minutes and then treated with goat anti-human Fcγ fragment IgG1 antibody (Jackson ImmunoResearch Laboratories)-preclustered mouse Ephrin A1-Fc chimera (R&D Systems, final concentration: 1 μg/mL) (ratio: 1:5) for 30 minutes. Then, the culture solution was removed, and 2% PFA (Wako Pure Chemical Industries)/4% sucrose (Wako Pure Chemical Industries)/PBS was added, and left standing for 20 minutes to fix the cells. The solution was removed, and the cells were washed with PBS three times, followed by the addition of 0.25% Triton X-100 (Wako Pure Chemical Industries)/PBS for cell penetration treatment for 15 minutes. […] Neurons forming growth cone were counted in 30 fields of view per sample to calculate the proportion of the number of neurons causing growth cone collapse."}, "[1]": {"tested_on": "mouse ES cell derived-motor neuron / variant human SOD1 (G93A)-expressing astrocyte coculture", "experiment": "Motor neuron protection in in vitro ALS model derived from mouse ES cells", "type": "cell-based", "conditions": "antibody A 10, 30, 100 nM; EphA4-Fc 3, 10, 30 nM; KYL peptide 1, 3, 10 μM; 2 days", "experimental": "Mouse ES cells were maintained and cultured according to the following steps. Mouse ES cells (129×1/SvJ) cryopreserved at −80° C. were thawed in a thermostat bath and then diluted with a mouse ES cell culture medium (KnockOut(TM) DMEM (Gibco) containing 10% fetal bovine serum (FBS, Gibco), 0.1 mM β-mercaptoethanol (Gibco), 1 mM sodium pyruvate (Invitrogen), 2 mM L-glutamine (Invitrogen), 1% nonessential amino acids (Invitrogen), 100 units/mL penicillin-100 μg/mL streptomycin (Invitrogen), and 1000 units/mL ESGRO(R) leukemia inhibitory factor (Merck Millipore)) warmed to 37° C. Each cell suspension was centrifuged (1500 rpm, 3 min, room temperature), followed by the removal of the supernatant. The cells were suspended in a fresh medium, then transferred to a culture dish with feeder cells inoculated in advance, and maintained and cultured in a CO2 incubator (5% CO2, 37° C.).\nAstrocytes were established from a mouse newborn and maintained and cultured according to the following steps. A two-day-old wild-type mouse newborn (C57BL/6JJmsSlc (Japan SLC)) and a hybrid mouse newborn of a wild-type mouse and a variant human SOD1 (G93A) Tg-(B6.Cg-Tg(SOD1_G93A)1Gur/J ([…])) mouse were each euthanized by inhalation anesthesia with isoflurane (Intervet) or decapitation. […]"}}, "data": [{"molecule": "antibody A: mouse anti-EphA4 monoclonal antibody, IgG1/κ; heavy chain variable region SEQ ID NO: 11, light chain variable region SEQ ID NO: 13 (antibody, listed as Mus musculus, V domains shown) VH: QIQLVQSGPELKKPGETVKISCKASGYTFTDYSMHWVKQAPGKGLKWMGWINTETGEPTYADDFKGRFAFSLETSASTAYLQINNLKNEDTATYFCARIPLYYYGSRYWYFDVWGAGTTVTVSS VL: DIQMTQSPASLSVSVGETVTITCRASENIYRNLAWYQQKQGKSPQLLVYAATNLADGVPSRFSGSGSGTQYSLKINSLQSEDFGSYYCQHFWGTPWTFGGGTKLEIK", "values": [{"measurement": "suppression of growth cone collapse induced by mouse Ephrin A1 (in words)", "setting": "rat hippocampal neurons", "value": "suppressed, in a concentration-dependent manner"}, {"measurement": "suppression of motor neuron death / motor neuron protective effect (in words)", "setting": "[1]", "value": "suppressed, in a concentration-dependent manner"}]}]}
